Source: paper PMC12290011, “Pseudomonadal itaconate degradation gene cluster encodes enzymes for methylsuccinate utilization” (Communications Biology, 2025)

Legend:
[1] = molecular target: T1, Pa. xenovorans MmgE/PrpD family protein Bxe_B2582 (Paraburkholderia xenovorans, UniProt Q13R78); assay: coupled assay with C. necator itaconate CoA transferase, UHPLC; format: biochemical; conditions: 2.5 mM substrate, pH 7.0, 5 mM MgCl2, 30 °C
T1 construct: pET16b, His-tagged, E. coli BL21(DE3), Ni-NTA purified
T1 sequence (Q13R78 1-494): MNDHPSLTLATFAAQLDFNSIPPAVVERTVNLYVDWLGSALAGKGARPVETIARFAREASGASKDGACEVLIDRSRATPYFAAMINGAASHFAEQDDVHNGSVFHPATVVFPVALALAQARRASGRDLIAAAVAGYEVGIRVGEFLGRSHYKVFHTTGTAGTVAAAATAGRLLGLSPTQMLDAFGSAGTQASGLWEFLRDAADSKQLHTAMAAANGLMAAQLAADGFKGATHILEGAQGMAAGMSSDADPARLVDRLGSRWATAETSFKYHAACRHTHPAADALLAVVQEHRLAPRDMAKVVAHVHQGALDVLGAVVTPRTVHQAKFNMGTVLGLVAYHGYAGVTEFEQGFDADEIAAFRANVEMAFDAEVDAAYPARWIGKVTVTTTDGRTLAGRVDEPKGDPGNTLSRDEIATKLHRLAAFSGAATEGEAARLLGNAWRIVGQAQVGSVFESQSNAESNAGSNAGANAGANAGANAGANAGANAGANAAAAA

[2] = molecular target: T2, P. aeruginosa MmgE/PrpD family protein, (S)-(R)-methylsuccinate isomerase (Pseudomonas aeruginosa, UniProt Q9I564); assay: as above; format: biochemical; conditions: 2.5 mM substrate, pH 7.0, 5 mM MgCl2, 30 °C
T2 construct: gene PA0881; synthetic codon-optimized gene in pET16b, His-tagged, E. coli BL21(DE3), Ni-NTA purified
T2 sequence (Q9I564 1-450): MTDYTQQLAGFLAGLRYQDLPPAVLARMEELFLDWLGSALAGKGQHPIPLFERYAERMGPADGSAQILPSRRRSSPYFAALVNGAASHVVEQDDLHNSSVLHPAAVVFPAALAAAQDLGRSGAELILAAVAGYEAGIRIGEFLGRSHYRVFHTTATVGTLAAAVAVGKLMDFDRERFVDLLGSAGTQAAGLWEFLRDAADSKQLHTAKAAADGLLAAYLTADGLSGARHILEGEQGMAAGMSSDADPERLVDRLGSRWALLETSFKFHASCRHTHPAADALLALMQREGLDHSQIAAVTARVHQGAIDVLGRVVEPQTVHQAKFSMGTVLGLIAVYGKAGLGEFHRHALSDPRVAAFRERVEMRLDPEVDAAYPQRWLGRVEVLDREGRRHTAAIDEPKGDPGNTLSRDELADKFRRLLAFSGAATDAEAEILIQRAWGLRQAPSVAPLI

[3] = molecular target: T3, C. necator MmgE/PrpD family protein, (S)-(R)-methylsuccinate isomerase (Cupriavidus necator, UniProt Q0K3E6); assay: as above; format: biochemical; conditions: 2.5 mM substrate, pH 7.0, 5 mM MgCl2, 30 °C
T3 construct: gene prpD2; synthetic codon-optimized gene in pET16b, His-tagged, E. coli BL21(DE3), Ni-NTA purified
T3 sequence (Q0K3E6 1-460): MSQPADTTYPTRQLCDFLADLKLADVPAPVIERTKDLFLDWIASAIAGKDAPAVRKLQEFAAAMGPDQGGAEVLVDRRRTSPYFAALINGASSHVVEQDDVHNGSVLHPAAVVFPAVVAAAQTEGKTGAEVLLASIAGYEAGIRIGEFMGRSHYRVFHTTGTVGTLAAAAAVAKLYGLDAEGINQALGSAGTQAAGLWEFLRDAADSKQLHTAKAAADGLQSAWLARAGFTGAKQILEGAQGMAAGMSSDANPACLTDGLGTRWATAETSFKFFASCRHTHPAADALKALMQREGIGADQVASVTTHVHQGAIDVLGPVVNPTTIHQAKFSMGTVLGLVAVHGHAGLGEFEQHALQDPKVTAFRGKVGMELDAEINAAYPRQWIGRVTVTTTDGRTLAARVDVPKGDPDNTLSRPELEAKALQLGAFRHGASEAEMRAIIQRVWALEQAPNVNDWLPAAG

[4] = test system: C=C(CC(=O)O)C(=O)O; assay: purified protein; conditions: 1 mM succinyl-CoA, pH 7.0, 5 mM MgCl2, 30 °C
Excerpt: (§4) UHPLC assay of CoA-esters on P. aeruginosa itaconate CoA transferase

[5] = test system: C[C@@H](CC(=O)O)C(=O)O; assay: purified protein; conditions: 1 mM succinyl-CoA, pH 7.0, 5 mM MgCl2, 30 °C
Excerpt: as §4

[6] = test system: C[C@H](CC(=O)O)C(=O)O; assay: purified protein; conditions: 1 mM succinyl-CoA, pH 7.0, 5 mM MgCl2, 30 °C
Excerpt: as §4

[7] = substrate: C[C@@H](CC(=O)SCCNC(=O)CCNC(=O)[C@H](O)C(C)(C)COP(=O)(O)OP(=O)(O)OC[C@H]1O[C@@H](n2cnc3c(N)ncnc32)[C@H](O)[C@@H]1OP(=O)(O)O)C(=O)O; assay: UHPLC assay of mesaconyl-CoA formation; format: biochemical, Cupriavidus necator; conditions: 1 mM phenazine methosulfate as electron acceptor, pH 7.0, 5 mM MgCl2, 30 °C
Excerpt: (§1) UHPLC assay of mesaconyl-CoA formation on C. necator methylsuccinyl-C4-CoA dehydrogenase

[8] = substrate: C[C@H](CC(=O)SCCNC(=O)CCNC(=O)[C@H](O)C(C)(C)COP(=O)(O)OP(=O)(O)OC[C@H]1O[C@@H](n2cnc3c(N)ncnc32)[C@H](O)[C@@H]1OP(=O)(O)O)C(=O)O; assay: UHPLC assay of mesaconyl-CoA formation; format: biochemical, Cupriavidus necator; conditions: 1 mM phenazine methosulfate as electron acceptor, pH 7.0, 5 mM MgCl2, 30 °C
Excerpt: as §1

[9] = substrate: C[C@@H](CC(=O)SCCNC(=O)CCNC(=O)[C@H](O)C(C)(C)COP(=O)(O)OP(=O)(O)OC[C@H]1O[C@@H](n2cnc3c(N)ncnc32)[C@H](O)[C@@H]1OP(=O)(O)O)C(=O)O; assay: UHPLC assay of mesaconyl-CoA formation; format: biochemical, Pseudomonas aeruginosa; conditions: 1 mM phenazine methosulfate as electron acceptor, pH 7.0, 5 mM MgCl2, 30 °C
Excerpt: (§2) UHPLC assay of mesaconyl-CoA formation on P. aeruginosa methylsuccinyl-C4-CoA dehydrogenase

[10] = substrate: C[C@H](CC(=O)SCCNC(=O)CCNC(=O)[C@H](O)C(C)(C)COP(=O)(O)OP(=O)(O)OC[C@H]1O[C@@H](n2cnc3c(N)ncnc32)[C@H](O)[C@@H]1OP(=O)(O)O)C(=O)O; assay: UHPLC assay of mesaconyl-CoA formation; format: biochemical, Pseudomonas aeruginosa; conditions: 1 mM phenazine methosulfate as electron acceptor, pH 7.0, 5 mM MgCl2, 30 °C
Excerpt: as §2

[11] = substrate: O=C(O)C[C@H](O)C(=O)O; assay: purified protein; conditions: 1 mM succinyl-CoA, pH 7.0, 5 mM MgCl2, 30 °C
[12] = substrate: C=C(CC(=O)O)C(=O)O; assay: UHPLC assay of CoA-esters; format: biochemical, Cupriavidus necator; conditions: 1 mM succinyl-CoA, pH 7.0, 5 mM MgCl2, 30 °C
Excerpt: (§3) UHPLC assay of CoA-esters on C. necator itaconate CoA transferase

[13] = substrate: CC(C)(COP(=O)(O)OP(=O)(O)OC[C@H]1O[C@@H](n2cnc3c(N)ncnc32)[C@H](O)[C@@H]1OP(=O)(O)O)[C@@H](O)C(=O)NCCC(=O)NCCSC(=O)CCC(=O)O; assay: UHPLC assay of CoA-esters; format: biochemical, Cupriavidus necator; conditions: 10 mM itaconate, pH 7.0, 5 mM MgCl2, 30 °C
Excerpt: as §3

[14] = substrate: C[C@@H](CC(=O)O)C(=O)O; assay: UHPLC assay of CoA-esters; format: biochemical, Cupriavidus necator; conditions: 1 mM succinyl-CoA, pH 7.0, 5 mM MgCl2, 30 °C
Excerpt: as §3

[15] = substrate: C[C@H](CC(=O)O)C(=O)O; assay: UHPLC assay of CoA-esters; format: biochemical, Cupriavidus necator; conditions: 1 mM succinyl-CoA, pH 7.0, 5 mM MgCl2, 30 °C
Excerpt: as §3

[16] = substrate: C[C@](O)(CC(=O)O)C(=O)O; assay: UHPLC assay of CoA-esters; format: biochemical, Cupriavidus necator; conditions: 1 mM succinyl-CoA, pH 7.0, 5 mM MgCl2, 30 °C
Excerpt: as §3

[17] = substrate: O=C(O)CCCC(=O)O; assay: UHPLC assay of CoA-esters; format: biochemical, Cupriavidus necator; conditions: 1 mM succinyl-CoA, pH 7.0, 5 mM MgCl2, 30 °C
Excerpt: as §3

## C[C@H](CC(=O)O)C(=O)O [(R)-Methylsuccinate]
[1]
  coupled assay with C. necator itaconate CoA transferase, UHPLC: we tested the isomerase activity of the Pa. xenovorans MmgE/PrpD family protein Bxe_B2582
[2]
  coupled assay with C. necator itaconate CoA transferase, UHPLC: both MmgE/PrpD proteins catalyzed the isomerization of (S)-methylsuccinate to (R)-methylsuccinate
[3]
  coupled assay with C. necator itaconate CoA transferase, UHPLC: both MmgE/PrpD proteins catalyzed the isomerization of (S)-methylsuccinate to (R)-methylsuccinate

## P. aeruginosa itaconate CoA transferase (Pseudomonas aeruginosa PAO1)
[4]
  Km: 800 ± 300 µM
  Vmax: 73 µmol/min/mg
  kcat/Km: 66300 M⁻¹ s⁻¹
[5]
  Km: 17800 ± 8000 µM
  Vmax: 54.3 µmol/min/mg
  kcat/Km: 2200 M⁻¹ s⁻¹
[6]
  Km: 600 ± 200 µM
  Vmax: 69.8 µmol/min/mg
  kcat/Km: 88000 M⁻¹ s⁻¹

## C[C@@H](CC(=O)O)C(=O)O [(S)-Methylsuccinate]
[1]
  coupled assay with C. necator itaconate CoA transferase, UHPLC: we tested the isomerase activity of the Pa. xenovorans MmgE/PrpD family protein Bxe_B2582
[2]
  coupled assay with C. necator itaconate CoA transferase, UHPLC: both MmgE/PrpD proteins catalyzed the isomerization of (S)-methylsuccinate to (R)-methylsuccinate
[3]
  coupled assay with C. necator itaconate CoA transferase, UHPLC: both MmgE/PrpD proteins catalyzed the isomerization of (S)-methylsuccinate to (R)-methylsuccinate

B1: C. necator methylsuccinyl-C4-CoA dehydrogenase (Cupriavidus necator H16) (protein)
chain: MHAHQDPDQLYPEIREAVRDLCAGFDSAYWQRVEEQNAFPETFVQALTQAGWLSALIPEAYGGSGLSLTAASVIMEEINRSGGNSGACHGQMYVMGCLLRHGSEAQKQRWLPGIASGELRMQSMAVTEPTTGTDTTKLKTTAVRQGDKYIVNGQKVWISRVQHSDLMLLLARTTPLDQVKRKSEGLSVFVVDLRDAIGKGLTVKPIRNMVNHETNELFFDNLEVPAGNLIGEEGKGLKYILDGLNAERILIAAECIGDGYWFVERASNYARDRIVFDRPIGQNQAVQFPIARSYINVEAASLMRYKASQLFDAGKPCGKEANISKLLAADASWEAANVCLQTHGGFGFAAEYDIERKFRETRLYQVAPISTNLILSYVAEHVLELPRSF
notes: pET23b, His-tagged, E. coli BL21(DE3), Ni-NTA purified with FAD in buffers
[7]
  Km: 420 ± 140 µM
  Vmax: 0.69 µmol/min/mg
  kcat/Km: 1200 M⁻¹ s⁻¹
[8]
  Km: 360 ± 80 µM
  Vmax: 0.72 µmol/min/mg
  kcat/Km: 1500 M⁻¹ s⁻¹

B2: P. aeruginosa methylsuccinyl-C4-CoA dehydrogenase (Pseudomonas aeruginosa PAO1) (protein)
chain: MNPNSEELNAIREGVRALCAEFDAAYWRRIDEQRGFPEAFVKALTDAGWLSAMIPEEYGGSGLGLAEASVILEEVNRCGGNSGTVHGQMYNMFTLLRNGSEAQKRFYLPKLASGELRLQSMGVTEPTTGTDTTKIKTTAVRKGDRYVINGQKVWISRIQHSDLMILLARTTPLAEVKRKSEGMSIFLVDLREAIGKGLTVQPIANMVNHETNELFFDNLEIPADSLIGEEGKGFRYILDGLNAERTLIAAECIGDGRWFIDKASHYARDRVVFGRPIGQNQGVQFPIAEAHIEVEAADLMRWRACQEYDAGLNAGASANMAKYLAAKASWEAANACLQTHGGFGFACEYDVERKFRETRLYQVAPISTNLILSYVAEHLLELPRSF
notes: synthetic codon-optimized gene in pET23a, His-tagged, E. coli BL21(DE3), Ni-NTA purified with FAD in buffers
[9]
  Km: 470 ± 130 µM
  Vmax: 2.8 µmol/min/mg
  kcat/Km: 4300 M⁻¹ s⁻¹
[10]
  Km: 590 ± 140 µM
  Vmax: 3.38 µmol/min/mg
  kcat/Km: 4100 M⁻¹ s⁻¹

B3: C. necator itaconate CoA transferase (Cupriavidus necator H16) (protein)
chain: MSHSPKGIRPLDGIRVVSLEHAVAAPFATRQLADLGARVIKIERPGVGDFARGYDQSVHGQASYFVWLNRGKESLTLDLKDREAQAILHRLLADADVLVQNLAPGAAVRMGLDFDSLHGKYDKLIVCDISGYGDSGPYRDKKAYDLLIQAAAGLVGLTGGPNEPSRAGVSIADISAGMYAYSGILSALLQRGRTGKGLRVQVTMLEAMAEWMNQVLYFGHYGGKPPGRFGASHPTIAPYGVHRTGNGSVIFSVQNEREFANFCEIVLGNRELAQDERFSSNTARVHNRPELTAIIEERFAPMTVAQAEALLDEAQIANAPMNDIEGVWNHPQLQARQRWREVATPGGPIGALLPPANLSGVEPVMGDVPALGAHSRQILAELGYDDGDIAALADKRTI
notes: pET16b, N-terminal His-tag, E. coli BL21(DE3), Ni-NTA purified
[11]
  Km: 42800 ± 17200 µM
  Vmax: 1.1 µmol/min/mg
  kcat/Km: 20 M⁻¹ s⁻¹
[12]
  Km: 4000 ± 1700 µM
  Vmax: 53.2 µmol/min/mg
  kcat/Km: 9500 M⁻¹ s⁻¹
[13]
  Km: 760 ± 200 µM
  Vmax: 116 µmol/min/mg
  kcat/Km: 109000 M⁻¹ s⁻¹
[14]
  Km: 35600 ± 3200 µM
  Vmax: 35.6 µmol/min/mg
  kcat/Km: 700 M⁻¹ s⁻¹
[15]
  Km: 900 ± 100 µM
  Vmax: 82 µmol/min/mg
  kcat/Km: 65200 M⁻¹ s⁻¹
[16]
  Km: 15600 ± 2300 µM
  Vmax: 10.2 µmol/min/mg
  kcat/Km: 500 M⁻¹ s⁻¹
[17]
  Km: 37400 ± 8900 µM
  Vmax: 3.2 µmol/min/mg
  kcat/Km: 60 M⁻¹ s⁻¹
